Experimental data taken from patent US20180094062A1 (Hoffmann-La Roche, published 2018).
Changes are numbered by the printed parent chain.

T1: TtSlyDcys-Her3
T1 chain: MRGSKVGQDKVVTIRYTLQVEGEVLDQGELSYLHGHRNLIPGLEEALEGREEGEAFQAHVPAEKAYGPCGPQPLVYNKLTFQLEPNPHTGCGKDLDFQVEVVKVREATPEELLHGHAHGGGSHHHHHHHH

T2: human Heregulin fragment (HRG) (human)
T2 construct: a 44 kDa homodimeric protein, expressed in FreeStyle 293-F cells; also called Heregulin beta (HRG)
T2 chain: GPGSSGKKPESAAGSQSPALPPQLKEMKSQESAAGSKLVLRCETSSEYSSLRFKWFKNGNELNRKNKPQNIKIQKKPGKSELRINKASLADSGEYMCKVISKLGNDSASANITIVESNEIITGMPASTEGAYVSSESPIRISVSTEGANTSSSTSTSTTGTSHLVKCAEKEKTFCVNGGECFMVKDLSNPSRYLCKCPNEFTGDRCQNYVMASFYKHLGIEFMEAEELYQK

T3: HER4 ECD-HRG complex (Heregulin-complexed Her-4 ECD) (human, UniProt Q15303 26-651)
T3 construct: Her-4 ECD incubated with a 5-fold molar excess of Heregulin
T3 sequence 1: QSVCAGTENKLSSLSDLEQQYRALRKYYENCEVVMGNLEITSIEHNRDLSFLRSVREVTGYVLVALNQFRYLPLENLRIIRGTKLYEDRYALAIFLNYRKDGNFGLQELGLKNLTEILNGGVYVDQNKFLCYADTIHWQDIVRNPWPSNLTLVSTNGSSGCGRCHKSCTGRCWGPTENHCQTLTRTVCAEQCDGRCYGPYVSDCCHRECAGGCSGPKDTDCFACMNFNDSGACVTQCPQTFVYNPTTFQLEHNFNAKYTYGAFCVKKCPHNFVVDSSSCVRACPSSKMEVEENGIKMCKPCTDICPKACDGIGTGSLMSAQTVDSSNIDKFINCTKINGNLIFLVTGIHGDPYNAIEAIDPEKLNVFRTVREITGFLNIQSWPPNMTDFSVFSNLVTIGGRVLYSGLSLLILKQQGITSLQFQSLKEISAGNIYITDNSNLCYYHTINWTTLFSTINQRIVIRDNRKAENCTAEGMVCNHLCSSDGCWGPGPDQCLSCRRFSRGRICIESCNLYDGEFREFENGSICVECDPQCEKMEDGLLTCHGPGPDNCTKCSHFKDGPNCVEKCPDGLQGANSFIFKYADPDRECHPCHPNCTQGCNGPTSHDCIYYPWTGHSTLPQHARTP
T3 sequence 2: T2 chain

T4: TtSlyD-Wildtype
T4 construct: scaffold without insert; N-terminal methionine can be present or not; also called T.T.SlyD-wt; wild type Thermus thermophilus SlyD protein
T4 chain: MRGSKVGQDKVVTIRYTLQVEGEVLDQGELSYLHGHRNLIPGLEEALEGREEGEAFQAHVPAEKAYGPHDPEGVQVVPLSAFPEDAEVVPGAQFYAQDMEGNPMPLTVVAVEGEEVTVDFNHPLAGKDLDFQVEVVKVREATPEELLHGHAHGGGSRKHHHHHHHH

B1: anti-HER3 antibody M-08-11 (antibody, V domains shown)
VH: QAYLQQSGAELMRPGASVRMSCQASGYTFTSYTIHWLKQTPRQGLEWIGAIYPRNGDFSYNQKFKDKASLTVDTSSSTAYMHLSSLTSEDSAVYFCARTINYGDWFAYWGQGTLVTVSA
VL: DIQMIQSPASLFVSEGETVIITCRASENIYSNLAWYHQKKGKSPQVLVYAAIKLADGVPLRFSGSGSGTQFSLKINSLQSEDFGSYYCQHFWGPPYTFGSGTNLEIK
notes: mouse monoclonal antibody from hybridoma, tested as hybridoma supernatant or as antibody; also called M-011
B2: anti-HER3 antibody M-17-02 (antibody, V domains shown)
VH: EVQLQQSGTVLARPGASVKMSCKASGYSFTSYWIHWVKQRPGQGLEWIGAIYPGNSDTTYNQKFKGKAKLTAVTSASTAYMELSSLTNEDSAVYYCARTGVWTSYYFDYWGQGTTLTVSS
VL: DIQMTQSPASLSASVGETVTITCRASENIYSNLAWYQQKQGKSPQLLVYAATNLADGVPSRFSGSGSGTQFSLRINSLQPEDFGSYYCQHFYGTPFTFGTGTKLEIK
notes: mouse hybridoma clone
B3: anti-HER3 antibody M-43-01 (antibody, V domains shown)
VH: EVQLQQSGTVLARPGASVKMSCKASDYTFSNYWVHWVKQRPGQGLEWIGAIYPGNGDSTYYQKFKGKATLTAVTSTSTAYMDLSSLTNGDSAVYFCTRSGVGYNYYFDYWGQGTTLTVSS
VL: B2 VL with A50I, R74K, F83L, K107E
notes: mouse hybridoma clone
B4: anti-HER3 antibody M-46-01 (antibody, V domains shown)
VH: QIQLQQSGPQLVRPGASVKISCKASGYSFTSYWMHWVKQRPGRGLEWIGMIDPSDGVTRLNQKFKDKATLTVDNSSSTAYMQLSSPTSEDSAVHYCARVDVLYWYFDVWGAGTTVTVSS
VL: DIVLTQSPASLAVSLGQRATISCRASKSISISGYSYMHWYQQKAGQPPKLLIYLTSNLESGVPARFSGSGSGTDFTLNIHPVEEEDAATYYCHHSRELPFTFGSGTKLEIK
notes: mouse hybridoma clone

Key:
SBP-tagged HER3-ECD [1] = biological target: T5, SBP-tagged HER3-ECD (human, UniProt P21860 20-643); experiment: plate assay: SBP-tagged HER3-ECD on streptavidin plate, antibody titrated, 10 nM Europium-labeled Heregulin-beta detected by time-resolved fluorescence; half-maximal rise of the Heregulin signal
T5 construct: not shown: SBP tag
Description: (§1) On the next day the wells were washed three times with washing buffer (PBS+0.05% Tween-20) and blocked with PBS containing 1% BSA for one hour. After another three washes with washing buffer, 40 μl antibody solution (in Delfia Binding Buffer) was added to each well as a 2× stock of the desired final concentrations (10⁻³ to 10³ nM, alternatively 10⁻⁴ to 10² nM). Immediately […] of 20 nM Europium-labeled Heregulin-beta (PeproTech, Cat. #100-03) was added to achieve a final concentration of 10 nM. The plates were incubated on a shaker at room temperature for two hours. Following three washes with Delfia Wash Buffer, Delfia Enhancement Solution was added and incubated on a shaker for 15 minutes (light protected). Finally, the plates were measured in a Tecan Infinite F200 reader using a time-resolved fluorescence measurement protocol.

SBP-tagged HER3-ECD [2] = biological target: T5, SBP-tagged HER3-ECD; experiment: time-resolved fluorescence, 10 nM Eu-labelled Heregulin-beta on plate-bound SBP-tagged HER3-ECD, antibody titrated
Description: as §1

TtSlyDcys-Her3 [3] = biological target: T1, TtSlyDcys-Her3; experiment: ELISA, antigen coated, hybridoma supernatant
Description: For the ELISA screening an antigen down format was used. […] Hybridoma Supernatant was added to the plates and incubated for 1 h at room temperature. Bound antibody was detected with a HRP-labeled F(ab′)₂ goat anti-mouse Fcγ (Dianova) and ABTS (Roche) was used as a HRP-substrate.
As negative controls the scaffold proteins TtSlyDcas and TgSlyDΔIF were used.

[4] = biological target: T2, human Heregulin fragment (HRG); experiment: SPR Biacore T200, antibody captured, 25 C
Description: (§2) A Biacore T200 instrument (GE Healthcare) was mounted with a CM5 series sensor. The sensor was normalized in HBS-ET buffer (10 mM HEPES pH 7.4, 150 mM NaCl, 3 mM EDTA, 0.05% w/v Tween 20) according to the manufacturer's instructions. The sample buffer was the system buffer supplemented with 1 mg/ml CMD (Carboxymethyldextran, Sigma #86524). The system operated at 25° C. 6500 RU RAM-Fcγ (relative units of Fcγ-fragment RamlgG, GE Healthcare) were immobilized according to the manufacturer's instructions using amine coupling EDC/NHS chemistry on all four flow cells. The sensor was deactivated using 1M ethanolamine. […] Concentration dependent kinetics were measured. […] All analytes were injected for 5 min association time and 10 min dissociation time at 100 μl/min flow rate. The sensor capture system was regenerated by a 3 min injection at 10 μl/min of 10 mM glycine pH 1.7. Where possible kinetic data was evaluated using the Biacore T200 evaluation software.

[5] = biological target: T3, HER4 ECD-HRG complex …; experiment: SPR Biacore T200, antibody captured, 25 C
Description: as §2

TtSlyDcys-Her3 [6] = biological target: T1, TtSlyDcys-Her3; experiment: SPR Biacore T200, antibody captured, 25 C
Description: as §2

TtSlyD-Wildtype = biological target: T4, TtSlyD-Wildtype; experiment: SPR, antibody captured, 25 C

| Binder | EC50 (read off the curve) (SBP-tagged HER3-ECD [1]) [nM] | signal of HRG binding to HER3-ECD at the plateau (SBP-tagged HER3-ECD [2]) [%] | OD 405 nm (TtSlyDcys-Her3 [3]) [OD] | binding result [4] | binding result [5] | Kd (TtSlyDcys-Her3 [6]) [nM] | MR (Molar Ratio) (TtSlyDcys-Her3 [6]) | koff (TtSlyDcys-Her3 [6]) [s⁻¹] | kon (TtSlyDcys-Her3 [6]) [M⁻¹ s⁻¹] | binding result (TtSlyD-Wildtype) |
| --- | --- | --- | --- | --- | --- | --- | --- | --- | --- | --- |
| B1 | ~7 | 200 | – | – | – | – | – | – | – | – |
| B2 | – | – | 1.55 | – | – | – | – | – | – | – |
| B3 | – | 200 | 3.5 | no binding (tested: 450 nM) | no binding (tested: 90 nM) | 2.9 | 1.7 | 0.00016 | 54000 | no binding |
| B4 | ~2 | 330 | – | no binding (tested: 450 nM) | no binding (tested: 90 nM) | – | – | – | – | no binding |
